This note sets out measurements from patent US20030103978A1 (Amgen, published 2003).

The target in assay [1] is T1, human OPGbp[143-317] (human, UniProt O14788 143-317).
T1 sequence (looked up): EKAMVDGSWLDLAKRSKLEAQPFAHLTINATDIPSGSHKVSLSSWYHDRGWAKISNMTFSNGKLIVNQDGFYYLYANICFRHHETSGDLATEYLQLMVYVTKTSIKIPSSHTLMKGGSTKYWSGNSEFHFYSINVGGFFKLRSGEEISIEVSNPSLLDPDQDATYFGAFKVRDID
The assay is described as follows: cell-based or functional assay.

Assay [2] has as its target T1, human OPGbp[143-317]. The assay is described as follows: EIA: plate coated with human OPGbp[143-317] at 3 ug/ml, AT antibody in twofold steps 1.953-2000 ng/ml, goat anti-human IgG (Fc) conjugate, ABTS, absorbance at 405 nm. Here is the method:
(§1) After overnight incubation, the protein solutions were removed from the plate and 200 μl of 5% Chicken Serum (Gibco/BRL Cat# 16110-082) in PBST (PBS plus 0.05% Tween 20) was added to each well of the plate and plates were incubated at room temperature (RT) for 90 min with agitation. After incubation and blocking, plates were washed 4 times with 1×K-P wash solution in dH₂O (Cat#50-63-00, Kirkegaard & Perry Laboratories) and dried. […] Plates were incubated for three hours at room temperature with agitation, washed four times with 1×K-P wash solution and dried. Goat anti-human IgG (Fc) (Jackson ImmunoResearch, Cat# 109-036-098) was diluted 1:5000 in 5% Chicken Serum in PBST and 100 μl was added to each well. […] 100 μl of undiluted ABTS substrate (Kirkegaard & Perry; Cat# 50-66-00) was added to each well and the dish was incubated at room temperature until sufficient blue-green color developed. Color development was stopped by addition of 100 μl 1% SDS. Quantitation of color development was performed using a microtiter plate reader with detection at 405 nm.

For assay [3], the target named is T2, FLAG-murine OPGbp[158-316]/DE (murine, UniProt O35235 158-316).
T2 construct: Produced in E. coli; also called FLAG-mouse OPGbp/DE; DE variant
T2 sequence: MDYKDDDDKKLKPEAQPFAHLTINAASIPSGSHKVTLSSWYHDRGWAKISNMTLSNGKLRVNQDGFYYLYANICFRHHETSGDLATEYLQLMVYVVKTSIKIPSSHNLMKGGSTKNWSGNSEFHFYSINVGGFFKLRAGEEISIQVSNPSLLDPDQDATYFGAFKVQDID
The assay is described as follows: EIA: plate coated with FLAG-murine OPGbp[158-316]/DE at 3 ug/ml, AT antibody in twofold steps 1.953-2000 ng/ml, goat anti-human IgG (Fc) conjugate, ABTS, absorbance at 405 nm. As for the experimental part:
as §1

Assay [4] addresses T1, human OPGbp[143-317]. The assay is described as follows: SPR (BIAcore), immobilized OPGbp[143-317].

B1: Fab “Y” (Fab, V domains shown)
VH: EVQLVQSGAEVRKPGASVKVSCKASGYDFSNYAIHWVRQAPGQRLEWMGWINAGNGNTKFSQKFQGRITVTRDTAASTAYMELRSLRSEDTAVYYCARDSSNMVRGIIIAYYFDYWGQGTLVTVSS
VL: EIVLTQSPATLSFSPGERATLSCRASQSVGSYLAWYQQRPGQAPRPLIYDATNRATGIPTRFSGSGSGTDFTLTISSLEPEDFATYYCQHRRTFGRGTKLEIKR
For B1, the “murine bone marrow assay, TRAP in solution (pNPP), IC50” value in assay [1] was 212 nM.

B2: “AT” antibody (antibody, human IgG1, V domains shown)
VH: QVQLVQSGAEVRKPGASVKVSCKASGYDFSNYAIHWVRQAPGQRLEWMGWINAGNGNTKFSQKFQGRITVTRDTAASTAYMELRSLRSEDTAVYYCARDSSNMVRGIIIAYYFDYWGQGTLVTVSS
VL: EIVMTQSPSSLSASVGDRVTITCRASQSISRYLNWYQLKPGKAPRLLIYGASSLQSGVPSRFSGSGSGAEFTLTISSLQPEDIATYYCQHTRAFGQGTKVEIKR
notes: Full-length antibody from CHO cells: Fab “AT” heavy chain variable region joined to human IgG1 CH1, hinge, CH2 and CH3; light chain of Fab “AT” (kappa); the mature antibodies are identical; also called “AT” Ab; “AT” Nb
By EC50 (read off the curve) is commonly meant the concentration that produces a half-maximal response. Read a high EC50 (read off the curve) as a need for much substance. For B2, the results for the 50% effective concentration (EC50 (read off the curve)) in assay [2] and in assay [3] were ~10 ng/mL and ~20 ng/mL, respectively.

B3: “AT” Fab S96A (Fab, V domains shown)
VH: QVQLVQSGAEVRKPGASVKVSCKASGYDFSNYAIHWVRQAPGQRLEWMGWINAGNGNTKFSQKFQGRITVTRDTAASTAYMELRSLRSEDTAVYYCARDASNMVRGIIIAYYFDYWGQGTLVTVSS
VL: EIVMTQSPSSLSASVGDRVTITCRASQSISRYLNWYQLKPGKAPRLLIYGASSLQSGVPSRFSGSGSGAEFTLTISSLQPEDIATYYCQHTRAFGQGTKVEIKR
modifications: The Fab carried a 6xHis tag. Its chain and terminus are not stated, so it is left out.
notes: His-tagged Fab
Usually koff stands for a measure of how fast the partners let go of each other. Lower therefore signals a long-lived complex. As to B3, the koff in assay [4] stood at 0.0072 s⁻¹.

B4: “AT” Fab D110A (Fab, V domains shown)
VH: QVQLVQSGAEVRKPGASVKVSCKASGYDFSNYAIHWVRQAPGQRLEWMGWINAGNGNTKFSQKFQGRITVTRDTAASTAYMELRSLRSEDTAVYYCARDSSNMVRGIIIAYYFAYWGQGTLVTVSS
VL: EIVMTQSPSSLSASVGDRVTITCRASQSISRYLNWYQLKPGKAPRLLIYGASSLQSGVPSRFSGSGSGAEFTLTISSLQPEDIATYYCQHTRAFGQGTKVEIKR
notes: His-tagged Fab
Turning to B4, the dissociation rate constant (koff) in assay [4] is 0.127 s⁻¹.

B5: “AT” Fab S97A (Fab, V domains shown)
VH: QVQLVQSGAEVRKPGASVKVSCKASGYDFSNYAIHWVRQAPGQRLEWMGWINAGNGNTKFSQKFQGRITVTRDTAASTAYMELRSLRSEDTAVYYCARDSANMVRGIIIAYYFDYWGQGTLVTVSS
VL: EIVMTQSPSSLSASVGDRVTITCRASQSISRYLNWYQLKPGKAPRLLIYGASSLQSGVPSRFSGSGSGAEFTLTISSLQPEDIATYYCQHTRAFGQGTKVEIKR
modifications: The Fab carried a 6xHis tag. Its chain and terminus are not stated, so it is left out.
notes: His-tagged Fab
Take B5: the off-rate constant (koff) in assay [4] came out at 0.0062 s⁻¹. Compared with the last molecule, the koff is about 20-fold lower.

B6: “AT” Fab Y111A (Fab, V domains shown)
VH: QVQLVQSGAEVRKPGASVKVSCKASGYDFSNYAIHWVRQAPGQRLEWMGWINAGNGNTKFSQKFQGRITVTRDTAASTAYMELRSLRSEDTAVYYCARDSSNMVRGIIIAYYFDAWGQGTLVTVSS
VL: EIVMTQSPSSLSASVGDRVTITCRASQSISRYLNWYQLKPGKAPRLLIYGASSLQSGVPSRFSGSGSGAEFTLTISSLQPEDIATYYCQHTRAFGQGTKVEIKR
notes: His-tagged Fab
In turn, B6 showed a koff in assay [4] of 0.414 s⁻¹. Compared with the last molecule, the koff is about 67-fold higher.

B7: “AT” Fab D95A (Fab, V domains shown)
VH: QVQLVQSGAEVRKPGASVKVSCKASGYDFSNYAIHWVRQAPGQRLEWMGWINAGNGNTKFSQKFQGRITVTRDTAASTAYMELRSLRSEDTAVYYCARASSNMVRGIIIAYYFDYWGQGTLVTVSS
VL: EIVMTQSPSSLSASVGDRVTITCRASQSISRYLNWYQLKPGKAPRLLIYGASSLQSGVPSRFSGSGSGAEFTLTISSLQPEDIATYYCQHTRAFGQGTKVEIKR
modifications: The Fab carried a 6xHis tag. Its chain and terminus are not stated, so it is left out.
notes: His-tagged Fab
For B7, in assay [4], the binding result was “no binding”.

B8: “AT” Fab N98A (Fab, V domains shown)
VH: QVQLVQSGAEVRKPGASVKVSCKASGYDFSNYAIHWVRQAPGQRLEWMGWINAGNGNTKFSQKFQGRITVTRDTAASTAYMELRSLRSEDTAVYYCARDSSAMVRGIIIAYYFDYWGQGTLVTVSS
VL: EIVMTQSPSSLSASVGDRVTITCRASQSISRYLNWYQLKPGKAPRLLIYGASSLQSGVPSRFSGSGSGAEFTLTISSLQPEDIATYYCQHTRAFGQGTKVEIKR
modifications: The Fab carried a 6xHis tag. Its chain and terminus are not stated, so it is left out.
notes: His-tagged Fab
The molecule B8 gave a koff in assay [4] of 0.012 s⁻¹.
